Laboratory results reported in US10487318.

What was measured:
[1] = molecular target: T1, 33mer peptide (LQLQPFPQPQLPYPQPQLPYPQPQLPYPQPQPF)
T1 chain: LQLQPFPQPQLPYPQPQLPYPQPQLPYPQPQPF

[2] = molecular target: T2, Glia_56-79 peptide (LQLQPFPQPQLPYPQPQLPY)
T2 chain: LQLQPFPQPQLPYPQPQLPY

[3] = molecular target: T3, γ-gliadin peptide (IQPQQPAQL)
T3 chain: IQPQQPAQL

[4] = molecular target: T4, fluorescent analogue of gliadin, hexapeptide QPQLPY conjugated to a fluorophore and a quencher
T4 chain: QPQLPY

[5] = molecular target: T5, α9-gliadin peptide (QLQPFPQPQLPY)
T5 chain: QLQPFPQPQLPY

[6] = molecular target: T6, α2-gliadin peptide (PQPQLPYSQPQPFR)
T6 chain: PQPQLPYSQPQPFR

B1: Homologue 14 (NCBI YP_001861188) (protein)
chain: HMTKHPLPGSERVLAPGSKVVAQCDPSETIEVVVVLRRKNEQQFAQMMKTIEAGAAGARPLTREELEQRFGALPEDIAKLKAFAAQHGLSVVREDASARTVVLSGRIEQFQQAFDVQLQHYEHQSMGRFRGRTGAISVPDELHGVVTAVLGLDDRPQARPHFRIRPPFQPARAQSASSFTPLQLASLYRFPQGDGSGQCIGIVELGGGYRTADLDSYFSSLGVGSPKVVAVGVDQSGNQPTGDPNGPDGEVTLDIEIAGALAPAATIAVYFTTNSDAGFIDAVSQAVHDRTNQPSVISISWGAPESMWTAQSMKALNDVLQSAAAIGVTVCAASGDSGSSDGVGDGRDHVDFPASSPYVLACGGTSLQGSGRTVAHEVVWNDGSNGGATGGGVSGAFPVPAWQEGLSTSAAQGGQRALTGRGVPDVAGDASPLTGYDVIVDGNNTVIGGTSAVAPLWAALIARINGAKGAPVGFVNPKLYKASACNDITQGNNGSYAATTGWDACTGLGSPDGVKVAAAL
B1 was tested. Which “Degradation pattern of 33mer (60 min)” value [1] did it give?
The value was “WT-like - minor”.

B2: Homologue 6 (NCBI YP_003109679) (protein)
chain: MAPEERRTLPGSAMPRPAGAQVLGQIPDDERVEVTVVLQPRAPLPEPGPTPMSRAELADLRSPPEGALEAIARYVAGQGLEVIAADAPRRRIVLAGSAARIAALFGISFVRLQLEGRRYRTYEGEISLPAELAPLVVAVLGLDTRPFARSHRRPAVAPNAPTTAPTVARAYDFPTAYDGRGTTIGFIELGGGFQESDLVRYCEGLGLSTPQVSVVGVDGARNAPTGDPNGPDAEVMLDLEVATGVANGADLVLYMAANTDAAFYSAIATALRDATHAPVAISISWGAPEESYPATTIAAFESVLEEAVHVGVTVLVAAGDQGSTDGVDDGRAHVDYPAASPYVLACGGTRLDLDGTTIVAETVWNDLPNGGATGGGISALFPVPSWQAGIAMPPSANPGAGPGRGVPDVAGNADPDTGYRIVVDGVATVVGGTSAVAPLWAGLVARCHQAGARGGFWNPLLYAARGSSAFHEITVGSNGAYDAGPIWNACCGLGSPNGTAILQTLRA
Which “grade and % of peptide after an 80-min incubation” value (shortened to “grade and % of peptide”) [2] does the source give for B2 here?
Its value is “-; 85%”.

What about the “grade and % of peptide” value [3] of the same protein?
The value was “-; 102%”.

And the “rate of degradation of the fluorescent hexapeptide, pH 4” value [4]?
The value was “no activity was seen for this homologue in the fluorescent experiment conducted at pH 4”.

And the “grade and % of peptide” value [5]?
Its value is “-; 114%”.

What about the “grade and % of peptide” value [6] of the same protein?
Its value is “-; 87%”.

B3: Homologue 4 (NCBI ZP_10028298) (protein)
chain: MANHPLNGSERECLKDAQPIGKADPNERLEVTMLVRRRSHDAFEKHISALAAQGASAKHIDHDEFTKHFGADSADLAAVHAFAQKHGLSVVESHEARRAVVLSGTVAQFDAAFGVSLQQYEHDGGTYRGRTGPIHLPDELNGVVDAVMGLDNRPQARPSFRTRAQGNVRWTARAAGASTFTPVQLASLYDFPQGDGQNQCIGIIELGGGYRPADLKTYFASLNMKAPSVTAVSVDHGRNHPTGDPNGPDGEVMLDIEVAGAVAPGAKIVVYFAPNTDAGFIDAIGTAIHDTKNKPSVISISWGGPESAWTQQAMNAFDQAFQSAAALGVTICAASGDNGSGDGVGDGADHVDFPASSPYALGCGGTSLQASGNGIASETVWNDGANGGATGGGVSSFFALPAWQEGLRVTRAGGAHSPLAMRGVPDVAGNADPVTGYEVRVDGHDMVIGGTSAVAPLWAGLIARINAIKGAPVGYINPHLYKDPLALVDITKGNNDDFHATAGWDACTGLGRPDGKKVKDAVS
Which “Degradation pattern of 33mer (60 min)” value [1] does the source give for B3 here?
Its value is “WT-like”.

What about the “activity on peptide (percent)” value [1] of the same protein?
The value was 38%.

And the “grade and % of peptide” value [2]?
Its value is “++; 0.6%”.

And the “grade and % of peptide” value [3]?
Its value is “+; 12%”.

And the “rate of degradation of the fluorescent hexapeptide, pH 4.0, 37° C.” value [4]?
Its value is “had activity comparable to or better than Kumamolisin under these conditions”.

And the “grade and % of peptide” value [5]?
The value was “++/-; 25%;”.

And the “grade and % of peptide” value [6]?
The value was “++ (undetect)”.

B4: Homologue 17 (NCBI YP_004216463) (protein)
chain: MAATPRFASQPRVTLPGSQKHPLTTDTEVPPPAPVKAAATKLSATPFTVTVIVKRKNPLNLKQVLKPAGRLTHAAFAKAHGPSPDGVKLVKAFAKEFGLTVAPAPGQGRRALYLTGTAAAMQTAFGVTFATKIMEGTKYRVREGDICLPKELIGHVDAVLGLDNRPQAKPHFRHHKPAATSVSYTPVQVGQLYGFPSGAKATGQTIGLIELGGGFRAADITAYFKTLGQTAPKVTAVLVDKAKNTPTTSSSADGEVMLDIEVAAAVAPGANIAVYFAPNTDQGFIDAISQAVHDTVNKPSVISISWGGPESTWTAQSLAALDAACQSAAALGITITVAAGDDGSTDGVKGTVNHVDFPASSPHVLGCGGTKLLGSGTTITSEVVWNELTANEGATGGGVSNVFPLPTWQAKSNVPKPTVAAGGRGVPDVSGNADPSTGYTVRVDGSTFPIGGTSAVAPLWAGLIALCNAQNKTTAGFINPALYAAAAAKSFRDITSGNNGGFKAGPGWDACTGLGSPIGTAIAKTLAPATKSTSKTAVKNAPEIRFRPHKKAPTKTAAKTPALRRLK
Which “Degradation pattern of 33mer (60 min)” value [1] does the source give for B4 here?
Its value is “WT-like - minor”.

B5: Homologue 16 (NCBI YP_003387700) (protein)
chain: MSAFDQLVPLPGSEKTVPDAAPSQTLDPNEVLTVTIRIRRKRTLASLVSTTAPVTEVVSRSEYASRFGADPAIVKQVEAFASAYDLSLVEQSLARRSVLLRGTVAQMEQAFGVSLANYQLADGTVFRGRTGVVNVPSELVEHIEGVFGLDNRPQARAHFQVYKPEKGTKVAPRAGGISYTPPQLARLYNFPTGVTGKGQCIAIIELGGGFRTADIKTYFGGLGLKPPTVVAVSVDGGHNAPSTADSADGEVMLDIDVAGGVAPGAKIVVYFAPNTDQGFLDAITTAMHDTKNKPSVISISWGAAESNWTPQALTSFNQAFQAAAALGITVCAAAGDTGSDDSVGDGKAHVDFPASSPFVLACGGTKLTATDNVIASEVVWHESKTSATGGGVSDVFDLPDYQQKSHVPPSVNDKTRIGRGVPDVAAVADPVTGYAVRVDGSNLVFGGTSAVAPLMAGLIALINQQRGKAVGFIHPLIYANPSAFRDITQGNNTTTTGNKGYAATTGWDACTGLGVADGKKLASVLTATPVA
With B5 as the protein, how does the “Degradation pattern of 33mer (60 min)” value [1] read?
The value was “WT-like”.

B6: Homologue 5 (NCBI ZP_09078202) (protein)
chain: AGRTSYTPLEVAALYNFPSIHCKDQCIGILELGGGYRPADLQTYFNGLGIPQPNITDVSVGGAANRPTGDPNGPDGEVVLDIEVAAAVTPGAKIAVYFADNSDDGFLNAITTAIHDTRNKPSVISISWGKAEIGWTPQAINAMNQAFRDAAALGVTICCASGDDGSTDRVQDGRYHVDFPASSPYVLACGGTRLESSGSTITQEVVWNEGALGGGATGGGVSDVFDRPNWQANANVPTSANPERRIGRGVPDWAGNADPATGYQILVDGTRAVIGGTSAVAPLFAGLIAIINQKLGHSVGFINPILYNLSAQHNVFHDITSGNNDMSGQNGPYEAQPGWDACTGLGSPDGTKLMNAISEAHRLVSVG
What does the source list for B6?
grade and % of peptide after an 80-min incubation [2]: ++; 0.4%; grade and % of peptide after an 80-min incubation [3]: ++/-; 40%; grade and % of peptide after an 80-min incubation [5]: ++/-; 34%;; grade and % of peptide after an 80-min incubation [6]: ++ (undetect)

B7: Homologue 12 (NCBI YP_003658449) (protein)
chain: MTQPRYTPLPGSEREAPLLAARSNATAARASRAQTASATVVLRRRSELPEALVLDQQFISSDELAARYGADPVDIEKVRSVLERFKVSVVEVDAASRRVKVEGAVADIERAFNIALHSASGTDPHSGRGFEYRYRTGVLSVPAELGGIVTAVLGLDNRRQAETRLRVVPAAALGSSYTPVQLGEIYNFPQDATGAGQRIAIIELGGGYTPAGLRRYFASLGVVPPKVAAVSVDGAQNAPGPDPGADGEVQLDVEVAGALAPGAHVLVYFAPNTDQGFLDAVSQAAHATPPPTAISISWGASEDSWTASARDALNQALRDAAALGVTVTAAAGDSGSSDGVPDRRAHVDFPASSPYVLATGGTSLRADPATGVVQSETVWNDSQGSTGGGVSDVFPRPAWQAHVDVPHAGRGVPDVSAVADPATGYQVLVDNQPAVIGGTSAVAPLWAALVARLAESLGRPLGLLQPLVYPRTPGSTAYPGFRDITIGNNGAYKAGKGWDAATGLGVPDGTELLAHLRGLNGSE
With B7 as the protein, how does the “Degradation pattern of 33mer (60 min)” value [1] read?
The value was “WT-like”.

B8: Homologue 19 (NCBI YP_005056054) (protein)
chain: MPTSSRFASQSRVPLPGSERKPFVPAGAPKAAKTPKVSTAVKTVPATGRIRVSLIVPPKQPLDTKRLGKLDARLSRAQFAARHGADPASVRLVKAFAKEFGLTVEPITQPGRCTVQLSGTCAAMRKAFAISLVEHTTEQGKFRLREGEISLPAELEGHVLAVLGLDNRPQAKPHFRIAKPRATNVSYTPVQVAQMYGFPAGATATGQTIGIIELGGGYRAADLTAYFKTLGLPAPTVTAVPIDGGKNTPGNANGADGEVMLDIEVCAAVAQGAKIAVYFTTNTDQGFIDAITTAVHDSTNKPSVISISWGGPESSWTEQSMTALDAACQAAAAVGVTITVAAGDNGSSDGASGDNVDFPASSPHVLACGGTKLVGSGSTITSEVVWDETSNDEGATGGGVSTVFALPTWQKNANVPSPTTSAGGRGVPDVSGDADPSTGYTIRVDSETTVIGGTSAVAPLWAGLIALANAQNKVAAGFVNPALYAAGAKKAFRDITQGNNGSFSAGPGWDACTGLGSPVGNLVIQAVAPKSTTTKKAKKGKTK
With B8 as the protein, how does the “Degradation pattern of 33mer (60 min)” value [1] read?
The value was “WT-like - minor”.

B9: Homologue 15 (NCBI YP_002754884) (protein)
chain: MSPIASRRSALPLSERPAPENARALAAVEPDRTMTVSVLVRRKKPLVLADLEGKKLTHREFERRYGASEKDFATIAKFAAGHGLAVDHHASSLARRTVVLRGTARQMQQAFGVTLHDYEDSETQQRYHSFTGAITVPAAHARIIESVLGLDARPIAKPHFRVRKRSAAATGAVSFNPPQVASLYSFPTGVDGSGETIGILELGGGYETSDIQQYFSGLGIQPPTVVAVSVDGAVNAPGNPNGADGEVALDIQVAGSIAPGAKLAVYFAPNTEQGFVDAITTAVHDTANKPSVLSISWGGPESSWPQAAAQSLNNACESAAALGVTITVASGDNGSTDGVQDGQNHVDFPASSPYVLACGGTYLAAVNNGVPQESVWDDLASGGGATGGGVSALFPLPAWQTGANVPGGSMRGVPDVAGDASPESGYNVLVDGQPQVVGGTSAVAPLWAALIALVNQQKGEAAGFVNAALYQNPSAFHDITQGSNGAYAAAPGWDPCTGLGSPMGTAIAKILA
For B9, which “Degradation pattern of 33mer (60 min)” value [1] is on record?
Its value is “WT-like”.

B10: Homologue 26 (NCBI YP_004030750) (protein)
chain: MHSYLKQQSHMQSYLEQENHMRSYLEMRKKPYFDDLANIRPGGLTPAQVCQAYQFAKVQPVRPVKLGIVSLAGQYLSSDMSKAFTGYGLPTPVVSTAGSQVLGDLWSNVENMMDIEIAGAAWAYATGTAATLLMQFEPNNETGIPNAINALVAAGCEVISISWGAPANLQTMEAITARKEACKQAAVQNVHVFAASGDESLNDGTNSRTPDDPCCDPNVWGVGGTRLVLQADGSIAQESAWGDGNAADKGGGGGFDSREPLPDYQVGVVHSEHRGSPDSSANADPGTGYAIVANGQWLIGGGTSASAPLTAGYVAAILSTLPGPISQSVLQRKLYTAHKTAFRDILLGSNGAPARPGWEEATGLGSINGPGLAAALQS
What does the source list for B10?
Degradation pattern of 33mer (60 min) [1]: Max-like; activity against the 33mer peptide [1]: had very strong activity comparable to KumaMax™ at breaking down the 33mer peptide
